# Laboratory results as given in patent publication US20160108123A1 (Novartis, published 2016).
# Columns and labels:
# [1] = biological target: T1, human PD-L1 expressed on 300.19 cells (human, UniProt Q9NZQ7 19-290); assay: blocking of PE-labelled PD-1-Ig (0.7 µg/mL) binding to PD-L1-expressing 300.19 cells, FACS, 4 C, 4 h
# T1 construct: whole, on cells; also called huPD-L1; PD-L1-expressing 300.19 cells
# Procedure: Bound fluorescence was then measured using FACS and IC₅₀ values determined using Prism software.
# [2] = biological target: T1, human PD-L1 expressed on 300.19 cells; assay: competition FACS against Alexa 488-labeled murine BAP058 on PD-L1-expressing 300.19 cells
# Procedure: Incubations with the mAb mixtures having different concentration ratios of test mAb to labeled mAb was at 4° C. for 30 min. Bound labeled murine mAb was then quantified using a FACS machine. The experiment was performed twice.
# [3] = biological target: T1, human PD-L1 expressed on 300.19 cells; assay: semi-quantitative ranking in the binding studies (4th column, p-1058; FACS data, p-1056); high number = poorer binder; the column's head says only 'Rank'
# human PD-L1 protein = biological target: T2, human PD-L1 protein (human, UniProt Q9NZQ7 19-238, limits assumed); assay: Biacore T-100; IgG captured by anti-human Fab on CM5 chip, PD-L1 flowed over (100-1.56 nM), 1:1 fit
# T2 construct: Construct not described
# Procedure: (§1) Immobilization was done at 25° C. using a flow rate of 10 μl/min. […] Test antibody was captured on Flow cell FC2, FC3 and FC4. […] Run Biacore Wizards Kinetic/Affinity: association time 120 sec, dissociation 600 sec. (Running buffer HBS-EP+BSA 0.25 mg/ml, Regeneration buffer: 10 mM glycine HCl pH 2.1). Data analyses were done with Biacore T-100 Evaluation software version 2, fit on 1:1.
# cynomolgus PD-L1 protein = biological target: T3, cynomolgus PD-L1 protein (cynomolgus, UniProt G7PSE7 19-238); assay: as above
# T3 construct: also called Monkey PD-L1; cyno PD-L1
# Procedure: as §1
# mouse PD-L1 protein = mouse PD-L1 protein (mouse, UniProt Q9EP73 19-238, limits assumed); assay: as above
# Procedure: as §1
# rat PD-L1 protein = rat PD-L1 protein (rat, UniProt D4AE25 19-239); assay: as above
# Procedure: as §1
# T1 sequence (Q9NZQ7 19-290): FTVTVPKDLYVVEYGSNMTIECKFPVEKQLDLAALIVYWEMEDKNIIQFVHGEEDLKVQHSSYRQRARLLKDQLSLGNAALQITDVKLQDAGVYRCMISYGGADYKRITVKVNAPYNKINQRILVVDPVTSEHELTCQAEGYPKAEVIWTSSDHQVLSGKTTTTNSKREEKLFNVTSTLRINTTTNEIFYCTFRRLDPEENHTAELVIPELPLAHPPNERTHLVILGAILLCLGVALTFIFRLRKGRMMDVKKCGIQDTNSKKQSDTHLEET
# Sequence of mouse PD-L1 protein (Q9EP73 19-238 limits assumed): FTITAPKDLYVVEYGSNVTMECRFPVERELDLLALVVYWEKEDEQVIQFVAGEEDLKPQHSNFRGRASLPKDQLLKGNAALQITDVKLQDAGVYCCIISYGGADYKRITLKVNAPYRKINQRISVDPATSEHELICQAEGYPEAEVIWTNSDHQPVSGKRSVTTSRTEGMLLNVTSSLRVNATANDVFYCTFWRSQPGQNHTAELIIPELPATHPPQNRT
# Sequence of rat PD-L1 protein (D4AE25 entry or part of it limits assumed): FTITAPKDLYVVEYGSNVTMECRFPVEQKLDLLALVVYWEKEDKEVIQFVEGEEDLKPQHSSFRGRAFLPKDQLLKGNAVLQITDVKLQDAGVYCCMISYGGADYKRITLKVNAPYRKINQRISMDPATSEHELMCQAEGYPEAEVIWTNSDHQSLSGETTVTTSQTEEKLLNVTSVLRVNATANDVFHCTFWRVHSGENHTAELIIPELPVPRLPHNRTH
# T3 sequence (G7PSE7 entry or part of it): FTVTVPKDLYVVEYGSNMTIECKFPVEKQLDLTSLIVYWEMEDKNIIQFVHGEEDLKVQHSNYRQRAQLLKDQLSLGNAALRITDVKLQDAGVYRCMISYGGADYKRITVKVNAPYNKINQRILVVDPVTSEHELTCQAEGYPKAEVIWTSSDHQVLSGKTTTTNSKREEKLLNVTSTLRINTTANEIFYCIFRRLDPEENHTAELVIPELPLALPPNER
# T2 sequence (Q9NZQ7 19-238 limits assumed): as the sequence (G7PSE7 entry or part of it) above, with T33A, S34A, N62S, Q68R, R82Q, L173F, A185T, I192T, L215H counted along it
Comp. binding (ratio conc. test mAb / conc. labelled murine BAP058 at the IC50) [2],Rank [3],Binder,further results
2.56,17,"BAP058-hum01 (antibody, human IgG4 S228P, kappa, V domains shown, Humanized IgG4(S228P)/human kappa mAb expressed in CHO cells) VH: QVQLVQSGAEVKKPGASVKVSCKASGYTFTSYWMYWVRQATGQGLEWMGRIDPNSGSTKYNEKFKNRFTISRDDSKNTAYLQMNSLKTEDTAVYYCARDYRKGLYAMDYWGQGTTVTVSS VL: DIVMTQTPLSLPVTPGEPASISCKASQDVGTAVAWYLQKPGQSPQLLIYWASTRHTGIPARFSGSGSGTEFTLTISSLQSEDFAVYYCQQYNSYPLTFGQGTKVEIKR",–
1.96,3,"BAP058-hum09 (antibody, human IgG4 S228P, kappa, V domains shown, Humanized IgG4(S228P)/human kappa mAb expressed in CHO cells) VH: EVQLVQSGAEVKKPGESLRISCKGSGYTFTSYWMYWIRQPPGKGLEWIGRIDPNSGSTKYNEKFKNRVTITADKSTSTAYMELSSLRSEDTAVYYCARDYRKGLYAMDYWGQGTTVTVSS VL: DIVMTQTPLSLPVTPGEPASISCKASQDVGTAVAWYLQKPGQSPQLLIYWASTRHTGIPARFSGSGSGTEFTLTISSLQSEDFAVYYCQQYNSYPLTFGQGTKVEIKR",–
2.16,4,"BAP058-hum17 (antibody, human IgG4 S228P, kappa, Humanized IgG4(S228P)/human kappa mAb expressed in CHO cells) heavy: not shown light: EIVLTQSPDFQSVTPKEKVTITCKASQDVGTAVAWYQQKPGQAPRLLIYWASTRHTGVPSRFSGSGSGTEFTLTISSLQPDDFATYYCQQYNSYPLTFGQGTKVEIKRTVAAPSVFIFPPSDEQLKSGTASVVCLLNNFYPREAKVQWKVDNALQSGNSQESVTEQDSKDSTYSLSSTLTLSKADYEKHKVYACEVTHQGLSSPVTKSFNRGEC",–
3.38,17,"BAP058-hum08 (antibody, human IgG4 S228P, kappa, Humanized IgG4(S228P)/human kappa mAb expressed in CHO cells) heavy: not shown light: DVVMTQSPLSLPVTLGQPASISCKASQDVGTAVAWYQQKPGQAPRLLIYWASTRHTGVPSRFSGSGSGTEFTLTISSLQPDDFATYYCQQYNSYPLTFGQGTKVEIKRTVAAPSVFIFPPSDEQLKSGTASVVCLLNNFYPREAKVQWKVDNALQSGNSQESVTEQDSKDSTYSLSSTLTLSKADYEKHKVYACEVTHQGLSSPVTKSFNRGEC",–
1.87,1,"BAP058-hum03 (antibody, human IgG4 S228P, kappa, V domains shown, Humanized IgG4(S228P)/human kappa mAb expressed in CHO cells) VH: EVQLVQSGAEVKKPGATVKISCKVSGYTFTSYWMYWVRQATGQGLEWMGRIDPNSGSTKYNEKFKNRVTITADKSTSTAYMELSSLRSEDTAVYYCARDYRKGLYAMDYWGQGTTVTVSS VL: EIVLTQSPDFQSVTPKEKVTITCKASQDVGTAVAWYLQKPGQSPQLLIYWASTRHTGVPDRFSGSGSGTDFTLKISRVEAEDVGVYYCQQYNSYPLTFGQGTKVEIKR",IC50 (read off the curve) [1]: ~0.04 mg/L

# Further lines, the binder ahead of its results:
Binder,Comp. binding (ratio conc. test mAb / conc. labelled murine BAP058 at the IC50) [2],Rank [3],further results
"chimeric mAb BAP058-chi (antibody, V domains shown, also called chimeric antibody; the chimera) VH: EVQLQQSGAELVKPGASVKLSCKASGYTFTSYWMYWVKQGPGRGLEWIGRIDPNSGSTKYNEKFKNKATLTVDKSSSTAYMQLSSLTSEDSAVYYCARDYRKGLYAMDYWGQGTTVTVSS VL: DIMMTQSHKFMSTSVGDRVSITCKASQDVGTAVAWYQQKPGQSPKLLIYWASTRHTGVPDRFTGSGSGTDFTLTISNVQSEDLADYFCQQYNSYPLTFGQGTKVEIK",–,–,IC50 (read off the curve) [1]: ~0.04 mg/L
"BAP058-hum02 (antibody, human IgG4 S228P, kappa, V domains shown, Humanized IgG4(S228P)/human kappa mAb expressed in CHO cells) VH: QVQLVQSGAEVKKPGASVKVSCKASGYTFTSYWMYWVRQATGQGLEWMGRIDPNSGSTKYNEKFKNRFTISRDDSKNTAYLQMNSLKTEDTAVYYCARDYRKGLYAMDYWGQGTTVTVSS VL: DIQMTQSPSSLSASVGDRVTITCKASQDVGTAVAWYLQKPGQSPQLLIYWASTRHTGVPSRFSGSGSGTDFTLTISSLQPEDFATYYCQQYNSYPLTFGQGTKVEIKR",2.14,17,–
"BAP058-hum14 (antibody, human IgG4 S228P, kappa, V domains shown, Humanized IgG4(S228P)/human kappa mAb expressed in CHO cells) VH: QVQLVQSGAEVKKPGASVKVSCKASGYTFTSYWMYWVRQATGQGLEWMGRIDPNSGSTKYNEKFKNRFTISRDDSKNTAYLQMNSLKTEDTAVYYCARDYRKGLYAMDYWGQGTTVTVSS VL: EIVLTQSPDFQSVTPKEKVTITCKASQDVGTAVAWYQQKPGQAPRLLIYWASTRHTGVPSRFSGSGSGTEFTLTISSLQPDDFATYYCQQYNSYPLTFGQGTKVEIKR",4.59,4,–
"BAP058-hum07 (antibody, human IgG4 S228P, kappa, V domains shown, Humanized IgG4(S228P)/human kappa mAb expressed in CHO cells) VH: QVQLVQSGAEVKKPGASVKVSCKASGYTFTSYWMYWIRQSPSRGLEWLGRIDPNSGSTKYNEKFKNRFTISRDDSKNTAYLQMNSLKTEDTAVYYCARDYRKGLYAMDYWGQGTTVTVSS VL: EIVLTQSPATLSLSPGERATLSCKASQDVGTAVAWYLQKPGQSPQLLIYWASTRHTGIPPRFSGSGYGTDFTLTINNIESEDAAYYFCQQYNSYPLTFGQGTKVEIKR",1.8,2,IC50 (read off the curve) [1]: ~0.04 mg/L
"BAP058-hum16 (antibody, human IgG4 S228P, kappa, V domains shown, Humanized IgG4(S228P)/human kappa mAb expressed in CHO cells) VH: QVQLVQSGAEVKKPGASVKVSCKASGYTFTSYWMYWIRQSPSRGLEWLGRIDPNSGSTKYNEKFKNRFTISRDDSKNTAYLQMNSLKTEDTAVYYCARDYRKGLYAMDYWGQGTTVTVSS VL: EIVLTQSPDFQSVTPKEKVTITCKASQDVGTAVAWYQQKPGQAPRLLIYWASTRHTGVPSRFSGSGSGTEFTLTISSLQPDDFATYYCQQYNSYPLTFGQGTKVEIKR",2.47,4,–
"BAP058-hum12 (antibody, human IgG4 S228P, kappa, V domains shown, Humanized IgG4(S228P)/human kappa mAb expressed in CHO cells) VH: EVQLVQSGAEVKKPGESLRISCKGSGYTFTSYWMYWVRQAPGQGLEWMGRIDPNSGSTKYNEKFKNRVTISVDTSKNQFSLKLSSVTAADTAVYYCARDYRKGLYAMDYWGQGTTVTVSS VL: DIQMTQSPSSLSASVGDRVTITCKASQDVGTAVAWYQQKPGQAPRLLIYWASTRHTGVPSRFSGSGSGTDFTFTISSLQPEDIATYYCQQYNSYPLTFGQGTKVEIKR",2.27,4,–
"BAP058-hum05 (antibody, human IgG4 S228P, kappa, V domains shown, Humanized IgG4(S228P)/human kappa mAb expressed in CHO cells) VH: EVQLVQSGAEVKKPGATVKISCKVSGYTFTSYWMYWIRQSPSRGLEWLGRIDPNSGSTKYNEKFKNRLTISKDTSKNQVVLTMTNMDPVDTATYYCARDYRKGLYAMDYWGQGTTVTVSS VL: EIVLTQSPDFQSVTPKEKVTITCKASQDVGTAVAWYLQKPGQSPQLLIYWASTRHTGVPSRFSGSGSGTDFTFTISSLQPEDIATYYCQQYNSYPLTFGQGTKVEIKR",1.71,2,–
"BAP058-hum06 (antibody, human IgG4 S228P, kappa, V domains shown, Humanized IgG4(S228P)/human kappa mAb expressed in CHO cells) VH: EVQLVQSGAEVKKPGESLRISCKGSGYTFTSYWMYWIRQPPGKGLEWIGRIDPNSGSTKYNEKFKNRVTITADKSTSTAYMELSSLRSEDTAVYYCARDYRKGLYAMDYWGQGTTVTVSS VL: EIVLTQSPDFQSVTPKEKVTITCKASQDVGTAVAWYLQKPGQSPQLLIYWASTRHTGVPSRFSGSGSGTDFTFTISSLQPEDIATYYCQQYNSYPLTFGQGTKVEIKR",1.39,2,–
"BAP058-hum04 (antibody, human IgG4 S228P, kappa, V domains shown, Humanized IgG4(S228P)/human kappa mAb expressed in CHO cells) VH: EVQLVQSGAEVKKPGESLRISCKGSGYTFTSYWMYWVRQAPGQGLEWMGRIDPNSGSTKYNEKFKNRVTISVDTSKNQFSLKLSSVTAADTAVYYCARDYRKGLYAMDYWGQGTTVTVSS VL: EIVLTQSPDFQSVTPKEKVTITCKASQDVGTAVAWYLQKPGQSPQLLIYWASTRHTGVPSRFSGSGSGTDFTFTISSLQPEDIATYYCQQYNSYPLTFGQGTKVEIKR",1.13,3,Kd (human PD-L1 protein): 2.14 nM; Kd (cynomolgus PD-L1 protein): 0.369 nM; Kd (mouse PD-L1 protein): 77.4 nM; Kd (rat PD-L1 protein): 6.14 nM; IC50 (read off the curve) [1]: ~0.04 mg/L
"BAP058-hum15 (antibody, human IgG4 S228P, kappa, V domains shown, Humanized IgG4(S228P)/human kappa mAb expressed in CHO cells) VH: EVQLVQSGAEVKKPGESLRISCKGSGYTFTSYWMYWIRQPPGKGLEWIGRIDPNSGSTKYNEKFKNRVTITADKSTSTAYMELSSLRSEDTAVYYCARDYRKGLYAMDYWGQGTTVTVSS VL: EIVLTQSPDFQSVTPKEKVTITCKASQDVGTAVAWYQQKPGQAPRLLIYWASTRHTGVPSRFSGSGSGTEFTLTISSLQPDDFATYYCQQYNSYPLTFGQGTKVEIKR",4.64,17,–
"BAP058-hum10 (antibody, human IgG4 S228P, kappa, V domains shown, Humanized IgG4(S228P)/human kappa mAb expressed in CHO cells) VH: QITLKESGPTLVKPTQTLTLTCTFSGYTFTSYWMYWVRQAPGKGLEWVSRIDPNSGSTKYNEKFKNRVTITADKSTSTAYMELSSLRSEDTAVYYCARDYRKGLYAMDYWGQGTTVTVSS VL: DVVMTQSPLSLPVTLGQPASISCKASQDVGTAVAWYQQKPGQAPRLLIYWASTRHTGVPSRFSGSGSGTEFTLTISSLQPDDFATYYCQQYNSYPLTFGQGTKVEIKR",–,4,–
